Laboratory results taken from patent US20220403013A1.

Biological target: malondialdehyde-modified LDL (MDA-LDL), human (human) (UniProt P04114)
Assay: ELISA, MDA-LDL immobilised on plate, antibody titrated (0.01-50 µg/ml), HRP anti-human IgG detection

- Kd: 8 nM
Substance: orticumab (antibody)
